Reference: article PMC7523994, “Relationships between puroindoline A-prolamin interactions and wheat grain hardness” (PLoS ONE, 2020)

What was measured:
[1] = molecular target: T1, puroindoline A (Triticum aestivum, UniProt P33432 29-148); test: SPR; (PQQPY)8 covalently bound to a CM5 chip; PINA 2 to 20 μM flowed over, 25°C, Hepes buffer pH 7.4; steady-state fit, 1:1 Langmuir model; conditions: both partners purified
T1 construct: puroindoline A (PINA) of Triticum aestivum cv; Recital, purified from grain; about 13 kDa, five disulfide bonds, tryptophan-rich domain; The Pina allele of cv; The preparation probably holds several C-terminally processed forms; also called PINA
T1 sequence (looked up): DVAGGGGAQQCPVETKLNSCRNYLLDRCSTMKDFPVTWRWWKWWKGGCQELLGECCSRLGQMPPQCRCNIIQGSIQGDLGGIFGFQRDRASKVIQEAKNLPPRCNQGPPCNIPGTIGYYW

[2] = molecular target: T1, puroindoline A; test: SPR; α-gliadin, γ-gliadin or (PQQPY)8 covalently bound to a CM5 chip (EDC/NHS, 10 mM acetate pH 4.7); PINA flowed over at 10 μL/min, 25°C, 10 mM Hepes pH 7.4, 150 mM NaCl, 3.4 mM EDTA, 0.005% P20; global kinetic fit, 1:1 Langmuir model; conditions: both partners purified

B1: recombinant polypeptide (PQQPY)8 (peptide)
chain: PQQPYPQQPYPQQPYPQQPYPQQPYPQQPYPQQPYPQQPY
notes: written out from '(PQQPY)8'; measured mass 4924.5 Da, theoretical 4924.3 Da; The fusion is printed as thioredoxin-DP-(PQQPY)8 and was cut in formic acid; The printed theoretical mass of 4924.3 Da fits 40 residues (eight repeats, monoisotopic) without a further proline; also called (Pro-Gln-Gln-Pro-Tyr)8; spr8; source: BLR strain, pETb32 vector, thioredoxin fusion; not shown: thioredoxin, …
For B1, the Kd [1] was 7.22 ± 2.8 µM, the Kd [2] was 0.29 ± 0.005 µM and the koff [2] was 0.0015 ± 0.1 s⁻¹. For the same binder, the kon [2] was 5000 ± 0.03 M⁻¹ s⁻¹.
